# Measurements as given in US20250171562A1.
# B1: CIgG4E3A1(G4S)2 (Fc fusion)
# chain 1: GPPCPPCPAPEFLGGPSVFLFPPKPKDTLMISRTPEVTCVVVDVSQEDPEVQFNWYVDGVEVHNAKTKPREEQFNSTYRVVSVLTVLHQDWLNGKEYKCKVSNKGLPSSIEKTISKAKGQPREPQVYTLPPCQEEMTKNQVSLWCLVKGFYPSDIAVEWESNGQPENNYKTTPPVLDSDGSFFLYSRLTVDKSRWQEGNVFSCSVMHEALHNHYTQKSLSLSLGKGGGGSGGGGSDVQLQESGGGLVQAGGSLRLACAASGRTLSSYVVSWFRQAPGKERKFVAAITWSGLSTTYLDSVQGRFTISRDNTKDTVYLQMNSLKPQDTAIYYCAAGPNIPSILRTRESEYAYWGQGTQVTVS
# chain 2: GPPCPPCPAPEFLGGPSVFLFPPKPKDTLMISRTPEVTCVVVDVSQEDPEVQFNWYVDGVEVHNAKTKPREEQFNSTYRVVSVLTVLHQDWLNGKEYKCKVSNKGLPSSIEKTISKAKGQPREPQVCTLPPSQEEMTKNQVSLSCAVKGFYPSDIAVEWESNGQPENNYKTTPPVLDSDGSFFLVSRLTVDKSRWQEGNVFSCSVMHEALHNHYTQKSLSLSLGKGGGGSGGGGSEVQLLESGGGLVQPGGSLRLSCAASGFTFGNYDMAWVRQAPGKRPEWVSSIDTGGDITHYADSVKGRFTISRDNAKNTLYLQMNSLRPEDTAVYWCATDEEYALGPNEFDYYGQGTLVTVSS
# B2: NIgG4E4A1(G4S)2 (Fc fusion)
# chain 1: DVQLQESGGGLVQPGGSLRLSCAASGFRFSNYAMRWYRQAPGKEREFVARISSTGFITRYTASVRDRFTISRDNDKNMMYLQLNKLTPQDTAHYYCNAESTDYWGQGTQVTVSGGGGSGGGGSGPPCPPCPAPEFLGGPSVFLFPPKPKDTLMISRTPEVTCVVVDVSQEDPEVQFNWYVDGVEVHNAKTKPREEQFNSTYRVVSVLTVLHQDWLNGKEYKCKVSNKGLPSSIEKTISKAKGQPREPQVYTLPPCQEEMTKNQVSLWCLVKGFYPSDIAVEWESNGQPENNYKTTPPVLDSDGSFFLYSRLTVDKSRWQEGNVFSCSVMHEALHNHYTQKSLSLSLGK
# chain 2: EVQLLESGGGLVQPGGSLRLSCAASGFTFGNYDMAWVRQAPGKRPEWVSSIDTGGDITHYADSVKGRFTISRDNAKNTLYLQMNSLRPEDTAVYWCATDEEYALGPNEFDYYGQGTLVTVSSGGGGSGGGGSGPPCPPCPAPEFLGGPSVFLFPPKPKDTLMISRTPEVTCVVVDVSQEDPEVQFNWYVDGVEVHNAKTKPREEQFNSTYRVVSVLTVLHQDWLNGKEYKCKVSNKGLPSSIEKTISKAKGQPREPQVCTLPPSQEEMTKNQVSLSCAVKGFYPSDIAVEWESNGQPENNYKTTPPVLDSDGSFFLVSRLTVDKSRWQEGNVFSCSVMHEALHNHYTQKSLSLSLGK
# B3: NIgG4E3A1(G4S)3 (Fc fusion)
# chain 1: DVQLQESGGGLVQAGGSLRLACAASGRTLSSYVVSWFRQAPGKERKFVAAITWSGLSTTYLDSVQGRFTISRDNTKDTVYLQMNSLKPQDTAIYYCAAGPNIPSILRTRESEYAYWGQGTQVTVSGGGGSGGGGSGGGGSGPPCPPCPAPEFLGGPSVFLFPPKPKDTLMISRTPEVTCVVVDVSQEDPEVQFNWYVDGVEVHNAKTKPREEQFNSTYRVVSVLTVLHQDWLNGKEYKCKVSNKGLPSSIEKTISKAKGQPREPQVYTLPPCQEEMTKNQVSLWCLVKGFYPSDIAVEWESNGQPENNYKTTPPVLDSDGSFFLYSRLTVDKSRWQEGNVFSCSVMHEALHNHYTQKSLSLSLGK
# chain 2: EVQLLESGGGLVQPGGSLRLSCAASGFTFGNYDMAWVRQAPGKRPEWVSSIDTGGDITHYADSVKGRFTISRDNAKNTLYLQMNSLRPEDTAVYWCATDEEYALGPNEFDYYGQGTLVTVSSGGGGSGGGGSGGGGSGPPCPPCPAPEFLGGPSVFLFPPKPKDTLMISRTPEVTCVVVDVSQEDPEVQFNWYVDGVEVHNAKTKPREEQFNSTYRVVSVLTVLHQDWLNGKEYKCKVSNKGLPSSIEKTISKAKGQPREPQVCTLPPSQEEMTKNQVSLSCAVKGFYPSDIAVEWESNGQPENNYKTTPPVLDSDGSFFLVSRLTVDKSRWQEGNVFSCSVMHEALHNHYTQKSLSLSLGK
# B4: CIgG4E3A1(G4S)3 (Fc fusion)
# chain 1: GPPCPPCPAPEFLGGPSVFLFPPKPKDTLMISRTPEVTCVVVDVSQEDPEVQFNWYVDGVEVHNAKTKPREEQFNSTYRVVSVLTVLHQDWLNGKEYKCKVSNKGLPSSIEKTISKAKGQPREPQVYTLPPCQEEMTKNQVSLWCLVKGFYPSDIAVEWESNGQPENNYKTTPPVLDSDGSFFLYSRLTVDKSRWQEGNVFSCSVMHEALHNHYTQKSLSLSLGKGGGGSGGGGSGGGGSDVQLQESGGGLVQAGGSLRLACAASGRTLSSYVVSWFRQAPGKERKFVAAITWSGLSTTYLDSVQGRFTISRDNTKDTVYLQMNSLKPQDTAIYYCAAGPNIPSILRTRESEYAYWGQGTQVTVS
# chain 2: GPPCPPCPAPEFLGGPSVFLFPPKPKDTLMISRTPEVTCVVVDVSQEDPEVQFNWYVDGVEVHNAKTKPREEQFNSTYRVVSVLTVLHQDWLNGKEYKCKVSNKGLPSSIEKTISKAKGQPREPQVCTLPPSQEEMTKNQVSLSCAVKGFYPSDIAVEWESNGQPENNYKTTPPVLDSDGSFFLVSRLTVDKSRWQEGNVFSCSVMHEALHNHYTQKSLSLSLGKGGGGSGGGGSGGGGSEVQLLESGGGLVQPGGSLRLSCAASGFTFGNYDMAWVRQAPGKRPEWVSSIDTGGDITHYADSVKGRFTISRDNAKNTLYLQMNSLRPEDTAVYWCATDEEYALGPNEFDYYGQGTLVTVSS
# B5: NIgG4E4A1(G4S)1 (Fc fusion)
# chain 1: DVQLQESGGGLVQPGGSLRLSCAASGFRFSNYAMRWYRQAPGKEREFVARISSTGFITRYTASVRDRFTISRDNDKNMMYLQLNKLTPQDTAHYYCNAESTDYWGQGTQVTVSGGGGSGPPCPPCPAPEFLGGPSVFLFPPKPKDTLMISRTPEVTCVVVDVSQEDPEVQFNWYVDGVEVHNAKTKPREEQFNSTYRVVSVLTVLHQDWLNGKEYKCKVSNKGLPSSIEKTISKAKGQPREPQVYTLPPCQEEMTKNQVSLWCLVKGFYPSDIAVEWESNGQPENNYKTTPPVLDSDGSFFLYSRLTVDKSRWQEGNVFSCSVMHEALHNHYTQKSLSLSLGK
# chain 2: EVQLLESGGGLVQPGGSLRLSCAASGFTFGNYDMAWVRQAPGKRPEWVSSIDTGGDITHYADSVKGRFTISRDNAKNTLYLQMNSLRPEDTAVYWCATDEEYALGPNEFDYYGQGTLVTVSSGGGGSGPPCPPCPAPEFLGGPSVFLFPPKPKDTLMISRTPEVTCVVVDVSQEDPEVQFNWYVDGVEVHNAKTKPREEQFNSTYRVVSVLTVLHQDWLNGKEYKCKVSNKGLPSSIEKTISKAKGQPREPQVCTLPPSQEEMTKNQVSLSCAVKGFYPSDIAVEWESNGQPENNYKTTPPVLDSDGSFFLVSRLTVDKSRWQEGNVFSCSVMHEALHNHYTQKSLSLSLGK
# B6: CIgG4E3A1(G4S)1 (Fc fusion)
# chain 1: GPPCPPCPAPEFLGGPSVFLFPPKPKDTLMISRTPEVTCVVVDVSQEDPEVQFNWYVDGVEVHNAKTKPREEQFNSTYRVVSVLTVLHQDWLNGKEYKCKVSNKGLPSSIEKTISKAKGQPREPQVYTLPPCQEEMTKNQVSLWCLVKGFYPSDIAVEWESNGQPENNYKTTPPVLDSDGSFFLYSRLTVDKSRWQEGNVFSCSVMHEALHNHYTQKSLSLSLGKGGGGSDVQLQESGGGLVQAGGSLRLACAASGRTLSSYVVSWFRQAPGKERKFVAAITWSGLSTTYLDSVQGRFTISRDNTKDTVYLQMNSLKPQDTAIYYCAAGPNIPSILRTRESEYAYWGQGTQVTVS
# chain 2: GPPCPPCPAPEFLGGPSVFLFPPKPKDTLMISRTPEVTCVVVDVSQEDPEVQFNWYVDGVEVHNAKTKPREEQFNSTYRVVSVLTVLHQDWLNGKEYKCKVSNKGLPSSIEKTISKAKGQPREPQVCTLPPSQEEMTKNQVSLSCAVKGFYPSDIAVEWESNGQPENNYKTTPPVLDSDGSFFLVSRLTVDKSRWQEGNVFSCSVMHEALHNHYTQKSLSLSLGKGGGGSEVQLLESGGGLVQPGGSLRLSCAASGFTFGNYDMAWVRQAPGKRPEWVSSIDTGGDITHYADSVKGRFTISRDNAKNTLYLQMNSLRPEDTAVYWCATDEEYALGPNEFDYYGQGTLVTVSS
# B7: CIgG4E3A1(RS) (Fc fusion)
# chain 1: GPPCPPCPAPEFLGGPSVFLFPPKPKDTLMISRTPEVTCVVVDVSQEDPEVQFNWYVDGVEVHNAKTKPREEQFNSTYRVVSVLTVLHQDWLNGKEYKCKVSNKGLPSSIEKTISKAKGQPREPQVYTLPPCQEEMTKNQVSLWCLVKGFYPSDIAVEWESNGQPENNYKTTPPVLDSDGSFFLYSRLTVDKSRWQEGNVFSCSVMHEALHNHYTQKSLSLSLGKRSDVQLQESGGGLVQAGGSLRLACAASGRTLSSYVVSWFRQAPGKERKFVAAITWSGLSTTYLDSVQGRFTISRDNTKDTVYLQMNSLKPQDTAIYYCAAGPNIPSILRTRESEYAYWGQGTQVTVS
# chain 2: GPPCPPCPAPEFLGGPSVFLFPPKPKDTLMISRTPEVTCVVVDVSQEDPEVQFNWYVDGVEVHNAKTKPREEQFNSTYRVVSVLTVLHQDWLNGKEYKCKVSNKGLPSSIEKTISKAKGQPREPQVCTLPPSQEEMTKNQVSLSCAVKGFYPSDIAVEWESNGQPENNYKTTPPVLDSDGSFFLVSRLTVDKSRWQEGNVFSCSVMHEALHNHYTQKSLSLSLGKRSEVQLLESGGGLVQPGGSLRLSCAASGFTFGNYDMAWVRQAPGKRPEWVSSIDTGGDITHYADSVKGRFTISRDNAKNTLYLQMNSLRPEDTAVYWCATDEEYALGPNEFDYYGQGTLVTVSS
# B8: NIgG4E4A1(RS) (Fc fusion)
# chain 1: DVQLQESGGGLVQPGGSLRLSCAASGFRFSNYAMRWYRQAPGKEREFVARISSTGFITRYTASVRDRFTISRDNDKNMMYLQLNKLTPQDTAHYYCNAESTDYWGQGTQVTVSRSGPPCPPCPAPEFLGGPSVFLFPPKPKDTLMISRTPEVTCVVVDVSQEDPEVQFNWYVDGVEVHNAKTKPREEQFNSTYRVVSVLTVLHQDWLNGKEYKCKVSNKGLPSSIEKTISKAKGQPREPQVYTLPPCQEEMTKNQVSLWCLVKGFYPSDIAVEWESNGQPENNYKTTPPVLDSDGSFFLYSRLTVDKSRWQEGNVFSCSVMHEALHNHYTQKSLSLSLGK
# chain 2: EVQLLESGGGLVQPGGSLRLSCAASGFTFGNYDMAWVRQAPGKRPEWVSSIDTGGDITHYADSVKGRFTISRDNAKNTLYLQMNSLRPEDTAVYWCATDEEYALGPNEFDYYGQGTLVTVSSRSGPPCPPCPAPEFLGGPSVFLFPPKPKDTLMISRTPEVTCVVVDVSQEDPEVQFNWYVDGVEVHNAKTKPREEQFNSTYRVVSVLTVLHQDWLNGKEYKCKVSNKGLPSSIEKTISKAKGQPREPQVCTLPPSQEEMTKNQVSLSCAVKGFYPSDIAVEWESNGQPENNYKTTPPVLDSDGSFFLVSRLTVDKSRWQEGNVFSCSVMHEALHNHYTQKSLSLSLGK
# Molecular target: mixture of three Der p 2 specific recombinant human IgE clones H10, H12, P4E (human) (UniProt P01854)
# Assay: RBL-SX38 IgE displacement, FACS
# mixture of three Der p 2 specific recombinant human IgE clones H10, H12, P4E (human), sequence (P01854 other isoform, or with tags, fused parts or gaps): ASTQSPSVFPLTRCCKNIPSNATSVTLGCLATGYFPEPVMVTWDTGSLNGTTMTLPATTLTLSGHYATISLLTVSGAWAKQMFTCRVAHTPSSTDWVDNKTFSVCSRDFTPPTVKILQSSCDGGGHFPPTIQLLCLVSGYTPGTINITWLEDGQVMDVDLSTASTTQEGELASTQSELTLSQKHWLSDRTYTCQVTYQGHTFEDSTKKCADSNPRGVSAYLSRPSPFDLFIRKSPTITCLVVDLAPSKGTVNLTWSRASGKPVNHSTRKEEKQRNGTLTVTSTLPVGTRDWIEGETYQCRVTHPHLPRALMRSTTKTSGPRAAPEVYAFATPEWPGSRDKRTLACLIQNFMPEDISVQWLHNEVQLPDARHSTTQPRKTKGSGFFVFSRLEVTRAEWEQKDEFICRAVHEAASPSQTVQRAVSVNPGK
Binder,EC50 [nM],Max effect/effect 1 µM [%]
B1,172,94
B2,16.4,98
B3,2.2,97
B4,162,73
B5,17,97
B6,277,76
B7,,21
B8,6.2,90
